Results taken from ChEMBL document CHEMBL3414448, “Advances in the discovery of novel antimicrobials targeting the assembly of bacterial cell division protein FtsZ” (Eur J Med Chem, 2015).

Compound: N=C(N)c1ccc(-c2cc3ccc(C(=N)N)cc3[nH]2)cc1
Assay: Inhibition of Escherichia coli FtsZ assessed as reduction in substrate KM value

B1: Cell division protein FtsZ (Escherichia coli K-12), P0A9A6 (protein)
chain: MFEPMELTNDAVIKVIGVGGGGGNAVEHMVRERIEGVEFFAVNTDAQALRKTAVGQTIQIGSGITKGLGAGANPEVGRNAADEDRDALRAALEGADMVFIAAGMGGGTGTGAAPVVAEVAKDLGILTVAVVTKPFNFEGKKRMAFAEQGITELSKHVDSLITIPNDKLLKVLGRGISLLDAFGAANDVLKGAVQGIAELITRPGLMNVDFADVRTVMSEMGYAMMGSGVASGEDRAEEAAEMAISSPLLEDIDLSGARGVLVNITAGFDLRLDEFETVGNTIRAFASDNATVVIGTSLDPDMNDELRVTVVATGIGMDKRPEITLVTNKQVQQPVMDRYQQHGMAPLTQEQKPVAKVVNDNAPQTAKEPDYLDIPAFLRKQAD
Q: For B1, which Km is on record?
A: 29.4 µM
